Measured values taken from patent publication US20220282255, “APTAMER FOR TGF-BETA1 AND USE OF SAME” (RIBOMIC INC., published 2022).

Assays:
[1] = molecular target: T1, TGF-β1 (Homo sapiens, UniProt P01137 P01137:279-390); test: SPR; +; conditions: tags: Recombinant Human TGF-β1, Peprotech; chain copies: 2 (homodimer, inferred)
[2] = molecular target: T1, TGF-β1; test: SPR; conditions: tags: Recombinant Human TGF-β1, Peprotech; chain copies: 2 (homodimer, inferred)
[3] = molecular target: T1, TGF-β1; test: cell_activity; SBE-luciferase HEK293, 80 pM:20 nM; conditions: tags: Recombinant Human TGF-β1, Peprotech; chain copies: 2 (homodimer, inferred)
Procedure: (§1) Whether the nucleic acids of SEQ ID NOs: 4-13, 17-22, 26-28 inhibit the activity of TGF-β1 was evaluated by a cell assay system that monitors Smad signaling pathway known to be activated by the stimulation of TGF-β. To be specific, photinus luciferase equipped with SBE (Smad-binding element) in the promoter region was used as a reporter (pGL4.48[luc2P/SBE/Hygro] Vector, Promega KK). Together with this SBE-induced photinus luciferase reporter plasmid, a renillaluciferase expression plasmid (pGL4.74[hRluc/TK] Vector, Promega KK) was mixed at a ratio of 20:1 as a standardized control for transfection efficiency, and transfected into HEK293 cells. The transfected HEK293 cells were re-seeded in a 96-well plate and cultured until confluent. TGF-β1 and a mixture of nucleic acid aptamers of SEQ ID NOs: 4-13, 17-22, 26-28 synthesized using T7 RNA polymerase (Y639F) were added thereto to respective final concentrations of 80 pM, 20 nM, and the cells were cultured for 3 hr. Thereafter, the expression levels of photinus luciferase and renillaluciferase were confirmed using Dual-Luciferase (registered trade mark) Reporter Assay System (Promega KK). The measurement value of photinus luciferase in each sample was corrected with the measured value of renillaluciferase, and the relative expression level of each sample was calculated by setting the ratio of photinus luciferase and renillaluciferase in a sample free of addition of TGF-β1 as 1. […] When a nucleic acid pool of 35N, 40N or 50N (SEQ ID NO: 14, 1, 23) was used as a negative control and a known TGF-β antibody (R&D, MAB1835) was used as a positive control, the same treatment and measurement were performed.

[4] = molecular target: T1, TGF-β1; test: SPR; receptor-binding inhibition, 10 nM:30 nM; conditions: tags: Recombinant Human TGF-β1, Peprotech; chain copies: 2 (homodimer, inferred)
Procedure: Measurement of Inhibitory Activity of Aptamer Against TGF-β1-2 Whether or not the nucleic acids of SEQ ID NOs: 6, 9, 19, 21, 26 inhibit the binding of TGF-β1 to the TGF-β receptor was evaluated by surface plasmon resonance method. For the measurement, Biacore T200 manufactured by GE Healthcare was used, and the measurement was performed by the method shown below. About 1500 RU of protein A was immobilized on the surface of a sensor chip of CM4 chip by using an amine coupling kit. 20 μL of Fc fusion TRII receptor (R&D) adjusted to 30 nM was injected as an analyte at a flow rate of 20 μL/min. As a result, the Fc fusion TRII receptor was immobilized on the surface of the sensor chip of the CM4 chip via protein A. Furthermore, a mixed solution of TGF-β1 (4 nM) or TGF-β1 (10 nM), and nucleic acid (30 nM) was injected. Solution A was used as the running buffer. Based on the RU value of a sample injected with TGF-β1 alone and the RU value before injection of TGF-β1, the effect of suppressing an increase in the RU value when TGF-β1 was injected in the presence of nucleic acid was calculated as the effect of inhibiting the binding of TGF-β1 to the TRII receptor.

[5] = molecular target: T1, TGF-β1; test: cell_activity; 80 pM:20 nM; conditions: tags: Recombinant Human TGF-β1, Peprotech; chain copies: 2 (homodimer, inferred); G4 (predicted)
Procedure: as §1
Whether or not these nucleic acids inhibit the activity of TGF-β1 was evaluated by a luciferase reporter assay similar to that in Example 4, as in Example 1.

T1 sequence (P01137 279-390, one chain of several): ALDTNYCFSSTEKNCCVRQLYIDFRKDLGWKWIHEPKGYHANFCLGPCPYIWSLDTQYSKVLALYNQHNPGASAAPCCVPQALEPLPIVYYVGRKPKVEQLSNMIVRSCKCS

B1: SEQ ID NO: 17 (ssRNA)
RNA: GGGAGAACUUGGAGCUGAUGUCUGGAGUCCCCAUAUAUCACGUACAGUGUAGUGCGACGUCAGUC
modifications: 2'-F all pyrimidines (U,C)
binding result [1]: binds

B2: SEQ ID NO: 27 (ssRNA)
RNA: GGGAAUGCACUAGUGUUCAACAUUUAGCAACACAAGUCGUCCCCCACGGCAAGCAGUCCUCAAUCCUGACAAGCUUGCACGUCGAGUCAG
modifications: 2'-F all pyrimidines (U,C)
binding result [1]: binds

B3: SEQ ID NO: 7 (ssRNA)
RNA: GGGAUCCGCAUCUAGAGUACGAAUAGUAAGGGAAUGACUCUCGGACCAAUGUAUUGCUAUAACGUCUACUGAAGCUAUCA
modifications: 2'-F all pyrimidines (U,C)
qualitative [2]: ≤ 10 RU

B4: SEQ ID NO: 8 (ssRNA)
RNA: GGGAUCCGCAUCUAGAGUACGAUGUGCUUGUGCUGAAAUUAGAUUUCGCCGACUUUCCCUAACGUCUACUGAAGCUAUCA
modifications: 2'-F all pyrimidines (U,C)
qualitative [2]: ≤ 10 RU

B5: SEQ ID NO: 10 (ssRNA)
RNA: GGGAUCCGCAUCUAGAGUACGAUGCAUGUUUUUAUAAAGUAUUGUUAUGUAAUGCAUCAAAACGUCUACUGAAGCUAUCA
modifications: 2'-F all pyrimidines (U,C)
qualitative [2]: ≤ 10 RU

B6: SEQ ID NO: 12 (ssRNA)
RNA: GGGAUCCGCAUCUAGAGUACCUAGAGGUGACUUGGGACGCGAGUUAUAAGGGAAUAGUCCAACGUCUACUGAAGCUAUCA
modifications: 2'-F all pyrimidines (U,C)
qualitative [2]: ≤ 10 RU

B7: SEQ ID NO: 26 (ssRNA)
RNA: GGGAAUGCACUAGUGUUCAACCCCGACCAAUAGCAGCCCGUCUUUAACUAUUGGAAUCGCAUACGGGCCCAAGCUUGCACGUCGAGUCAG
modifications: 2'-F all pyrimidines (U,C)
activity [3]: 81 % inhibition
binding signal [4]: 84.3 % inhibition

B8: SEQ ID NO: 6 (ssRNA)
RNA: GGGAUCCGCAUCUAGAGUACUUGUAUAAGUGGAGGGCGAGACUUGGGAGGGGCGAAUUGAAACGUCUACUGAAGCUAUCA
modifications: 2'-F all pyrimidines (U,C)
activity [3]: 98 % inhibition
binding signal [4]: 75 % inhibition

B9: SEQ ID NO: 9 (ssRNA)
RNA: GGGAUCCGCAUCUAGAGUACCAUAAGGGUGGGGAGACUUGGGAGAGGGCAAAGAAGACUAAACGUCUACUGAAGCUAUCA
modifications: 2'-F all pyrimidines (U,C)
activity [3]: 80 % inhibition
binding signal [4]: 70.2 % inhibition

B10: SEQ ID NO: 40 (ssRNA)
RNA: GGGAGAACUUGGAGCUCCUGAAUAAGGGAGGGGAGACUUGUGGAGGGCAGAAGUGCGACGUCAGUC
modifications: 2'-F all pyrimidines (U,C)
activity [5]: 100 % inhibition

B11: SEQ ID NO: 13 (ssRNA)
RNA: GGGAUCCGCAUCUAGAGUACACUAGUCACAUUGCGUGUACAUUACUCUGCGCAAUCGAUAAACGUCUACUGAAGCUAUCA
modifications: 2'-F all pyrimidines (U,C)
binding result [1]: binds
